This experiment has as its target integrin α5 on preosteoblastic MC3T3-E1 cells (mouse (endogenous in MC3T3-E1)) (UniProt P11688).
Chain of UniProt P11688 (P11688 45-1053): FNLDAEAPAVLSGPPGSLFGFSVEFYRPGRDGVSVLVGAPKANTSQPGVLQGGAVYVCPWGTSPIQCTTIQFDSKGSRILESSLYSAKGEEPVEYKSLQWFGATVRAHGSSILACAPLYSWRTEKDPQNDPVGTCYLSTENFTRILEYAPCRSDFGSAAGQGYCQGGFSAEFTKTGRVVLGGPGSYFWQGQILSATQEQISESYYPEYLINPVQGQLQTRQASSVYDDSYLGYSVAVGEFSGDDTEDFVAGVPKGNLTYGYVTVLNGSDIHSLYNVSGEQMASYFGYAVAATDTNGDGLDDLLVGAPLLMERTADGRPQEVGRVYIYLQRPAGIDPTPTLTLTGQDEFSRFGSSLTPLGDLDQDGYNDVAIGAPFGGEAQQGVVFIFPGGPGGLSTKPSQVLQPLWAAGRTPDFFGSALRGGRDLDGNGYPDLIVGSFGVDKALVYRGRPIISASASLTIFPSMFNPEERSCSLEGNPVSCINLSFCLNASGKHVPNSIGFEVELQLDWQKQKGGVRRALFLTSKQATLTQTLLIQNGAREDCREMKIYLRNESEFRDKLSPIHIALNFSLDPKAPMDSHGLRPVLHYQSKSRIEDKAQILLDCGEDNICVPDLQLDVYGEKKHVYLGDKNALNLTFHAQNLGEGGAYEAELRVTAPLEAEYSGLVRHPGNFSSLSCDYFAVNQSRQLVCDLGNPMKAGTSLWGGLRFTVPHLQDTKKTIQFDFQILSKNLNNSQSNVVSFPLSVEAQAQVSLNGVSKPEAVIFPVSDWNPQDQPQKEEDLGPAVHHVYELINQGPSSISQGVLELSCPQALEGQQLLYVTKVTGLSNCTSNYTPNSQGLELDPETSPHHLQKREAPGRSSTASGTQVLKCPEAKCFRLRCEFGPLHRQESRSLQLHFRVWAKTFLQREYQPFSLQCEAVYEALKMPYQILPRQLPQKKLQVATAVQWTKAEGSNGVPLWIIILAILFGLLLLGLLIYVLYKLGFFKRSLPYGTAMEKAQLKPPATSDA

Take “connective tissue growth factor (CTGF), recombinant (from UniProt P29279 27-349) (ligand)”: the forward migration index (FMI) of MC3T3-E1 cells toward a gradient of 150 ng/ml CTGF with neutralizing integrin α5 antibody (5 μg/ml pretreatment, 15 μg/ml in the reservoir), 12 h was determined as 0.02; the forward migration index (FMI) of MC3T3-E1 cells toward a gradient of 150 ng/ml CTGF, μ-slide chemotaxis chamber, 12 h, CTGF group without antibody was determined as 0.5; the migration distance of MC3T3-E1 cells toward a gradient of 150 ng/ml CTGF with neutralizing integrin α5 antibody, 12 h came out at 129 μm; the migration distance of MC3T3-E1 cells toward a gradient of 150 ng/ml CTGF, 12 h, CTGF group without antibody came out at 162 μm. This substance showed a velocity of MC3T3-E1 cells migrating toward a gradient of 150 ng/ml CTGF with neutralizing integrin α5 antibody, 12 h of 0.25 μm/min and a velocity of MC3T3-E1 cells migrating toward a gradient of 150 ng/ml CTGF, 12 h, CTGF group without antibody of 0.32 μm/min.
